T1: MBP-CD74 (CD74 ectodomain fused to maltose binding protein), biotinylated (UniProt P04233 73-296, biotin (EZ-Link Sulfo-NHS-LC-Biotinylation kit))
T1 sequence (looked up): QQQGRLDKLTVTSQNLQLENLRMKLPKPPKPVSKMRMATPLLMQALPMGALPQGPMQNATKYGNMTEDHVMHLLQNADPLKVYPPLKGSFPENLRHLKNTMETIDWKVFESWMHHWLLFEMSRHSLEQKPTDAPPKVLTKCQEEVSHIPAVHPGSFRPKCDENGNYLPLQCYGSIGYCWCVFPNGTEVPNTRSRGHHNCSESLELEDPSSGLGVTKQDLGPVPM

B1: Entamoeba histolytica macrophage migration inhibitory factor (Eh-MIF) (natural protein)
chain: MPHALITLSADITEEIKKEIAHESMKILSEVIGKPISYCATQVVTSVGGFGGKIVKSAFIDIKSISGLKGKQEGLSDRYCKLLEQKAGIEGGNIYLNFTEMTGNNWGYDHSTF
B2: human macrophage migration inhibitory factor (human MIF) (natural protein, UniProt P14174 1-115, looked up)
chain: MPMFIVNTNVPRASVPDGFLSELTQQLAQATGKPPQYIAVHVVPDQLMAFGGSSEPCALCSLHSIGKIGGAQNRSYSKLLCGLLAERLRISPDRVYINYYDMNAANVGWNNSTFA

What was measured:
[1] = biological target: the molecule itself; experiment: crystal structure
[2] = biological target: T1, MBP-CD74 (CD74 ectodomain fused to …); experiment: BLI

| Binder | stoichiometry N [1] | Kd [2] |
| --- | --- | --- |
| B1 | 3 | 11.2 nM |
| B2 |  | 18.2 nM |

From paper PMC7325720 (The Journal of Infectious Diseases, 2019)
